{"source": "patent US6660715B2", "about": "“Nonaqueous solutions and suspensions of macromolecules for pulmonary delivery” (Massachusetts Institute of Technology, priority 1998, dated 2003)", "system": "M. lysodeikticus", "assay": "Lysozyme activity after aerosolization from ethanol (standard assay against dried cells of M. lysodeikticus)", "type": "biochemical", "description": "[…] The reservoir containing the ethanol solution was connected via a plastic tube to a collecting test tube placed in an ice booth to facilitate condensation of the solution. The nebulization was started and continued for 5 minutes. As a result, about one mL of the ethanol solution was collected in the test tube (i.e. was aerosolized). No solution was collected with the nebulizer switched off. The lysozyme activity of the nebulized solution was measured using the standard assay against dried calls of M. lysodeikticus. (Shugar, Biochim. Biophys. Acta 8, 302 (1952)).", "data": [{"substance": "lysozyme: hen egg-white lysozyme (a model protein)", "values": [{"measurement": "specific activity of the nebulized solution relative to the initial enzyme solution", "setting": "0.1 mg/ml solution in ethanol, compressor nebulizer, 5 minutes", "value": "the same, (±10%) as that of the initial enzyme solution"}, {"measurement": "loss of enzymatic activity upon aerosolization", "setting": "dispersion in ethanol at 1 mg/ml", "value": "no appreciable loss of enzymatic activity"}, {"measurement": "loss of enzymatic activity upon aerosolization", "setting": "dispersion in ethanol at 10 mg/ml", "value": "no appreciable loss of enzymatic activity"}]}]}
